The values that follow come from patent US20230287598A1.

For experiment [1], the target named is CXCR1 (UniProt P25024). Briefly: cell-based or functional assay.
The target in experiment [2] is CXCR1 (UniProt P25024). Briefly: flow cytometry on CXCR1-U2OS cells, supernatant IgG (parental U2OS: 76). A general note: In flow cytometry, cells or beads pass a laser one at a time.
Experiment [3] deals with CXCR1 (UniProt P25024). The experiment can be described thus: flow cytometry, CXCR1-U2OS / parental U2OS; HC BLV1H12+CDR3-IL8.
Experiment [4] concerns the target CXCR1 (UniProt P25024). Briefly: cell-based or functional assay. This is another data set of the same source.
The next experiment deals with Kv1.3 (human) (UniProt P22001). Briefly: cell-based or functional assay.
Kv1.3 (human), sequence (P22001 whole entry): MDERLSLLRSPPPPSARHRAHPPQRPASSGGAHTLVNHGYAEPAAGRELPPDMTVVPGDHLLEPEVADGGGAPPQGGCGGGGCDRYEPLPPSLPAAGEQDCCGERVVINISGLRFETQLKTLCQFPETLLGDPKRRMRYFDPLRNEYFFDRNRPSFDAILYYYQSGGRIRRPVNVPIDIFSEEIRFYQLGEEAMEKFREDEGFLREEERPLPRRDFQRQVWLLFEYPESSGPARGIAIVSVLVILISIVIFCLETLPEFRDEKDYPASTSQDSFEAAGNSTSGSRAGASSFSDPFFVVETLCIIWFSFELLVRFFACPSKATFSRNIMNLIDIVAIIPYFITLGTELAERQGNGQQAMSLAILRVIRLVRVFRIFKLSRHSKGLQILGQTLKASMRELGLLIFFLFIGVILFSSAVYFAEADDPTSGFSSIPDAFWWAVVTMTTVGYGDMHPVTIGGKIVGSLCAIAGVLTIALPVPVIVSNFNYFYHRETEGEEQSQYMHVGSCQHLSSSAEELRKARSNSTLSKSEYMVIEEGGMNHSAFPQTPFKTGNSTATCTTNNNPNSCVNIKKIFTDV

Values joined by “and” are separate entries in the source; they are usually repeats but may differ in a detail not shown here. Equal entries are not always repeated. Where two headings read alike, the source gives them in different places.

CXCR1, sequence (P25024 whole entry): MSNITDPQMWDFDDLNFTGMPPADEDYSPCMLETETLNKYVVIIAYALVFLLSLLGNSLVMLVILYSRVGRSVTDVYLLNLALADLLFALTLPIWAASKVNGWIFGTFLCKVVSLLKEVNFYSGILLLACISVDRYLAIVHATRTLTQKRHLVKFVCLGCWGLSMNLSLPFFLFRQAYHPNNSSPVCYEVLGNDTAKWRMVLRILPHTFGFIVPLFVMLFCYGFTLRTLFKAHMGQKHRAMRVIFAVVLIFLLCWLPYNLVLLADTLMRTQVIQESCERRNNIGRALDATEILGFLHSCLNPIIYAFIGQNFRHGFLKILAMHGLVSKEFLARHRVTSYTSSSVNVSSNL
IL-8, sequence (P10145 28-99 limits assumed): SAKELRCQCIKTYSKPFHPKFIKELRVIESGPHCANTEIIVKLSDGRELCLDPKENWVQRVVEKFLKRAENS
soluble IL-8, sequence (P10145 28-99 limits assumed): as above

In the experiment with CXCR1 [1], BLV1H12-IL8 (antibody) returned a CXCR1 activation, luminescence, 0.1 nM IL-8 domains of 4520 luminescence; a CXCR1 activation, luminescence, 0.5 nM IL-8 domains of 9940 luminescence; a CXCR1 activation, luminescence, 2.2 nM IL-8 domains of 17600 luminescence; a CXCR1 activation, luminescence, 9.9 nM IL-8 domains of 25300 luminescence. In the experiment with CXCR1 [1], the CXCR1 activation, luminescence, 44 nM IL-8 domains turned out to be 32600 luminescence and the CXCR1 activation, luminescence, 200 nM IL-8 domains is 32200 luminescence.
Consider BLV1H12+CDR3-IL8 IgG (antibody), for which, in the experiment with CXCR1 [1], the CXCR1 activation, average RLU at 0.001 nM IgG is 7440 RLU; the CXCR1 activation, average RLU at 0.004 nM IgG is 7240 RLU; the CXCR1 activation, average RLU at 0.01 nM stood at 435 RLU; the CXCR1 activation, average RLU at 0.013 nM IgG turned out to be 7330 RLU. Further, in the experiment with CXCR1 [1], the CXCR1 activation, average RLU at 0.040 nM IgG was 7740 RLU; the CXCR1 activation, average RLU at 0.08 nM turned out to be 822 RLU; the CXCR1 activation, average RLU at 0.120 nM IgG was 8870 RLU; the CXCR1 activation, average RLU at 0.23 nM worked out at 1520 RLU. Also, in the experiment with CXCR1 [1], the CXCR1 activation, average RLU at 0.359 nM IgG was 13300 RLU; the CXCR1 activation, average RLU at 0.69 nM is 2650 RLU; the CXCR1 activation, average RLU at 1.076 nM IgG worked out at 23700 RLU; the CXCR1 activation, average RLU at 2.06 nM came to 3640 RLU. Further, in the experiment with CXCR1 [1], the CXCR1 activation, average RLU at 3.228 nM IgG is 34500 RLU; the CXCR1 activation, average RLU at 6.17 nM amounted to 4430 RLU; the CXCR1 activation, average RLU at 9.685 nM IgG worked out at 39300 RLU; the CXCR1 activation, average RLU at 18.52 nM amounted to 5070 RLU. Besides, in the experiment with CXCR1 [1], the CXCR1 activation, average RLU at 29.056 nM IgG worked out at 47600 RLU; the CXCR1 activation, average RLU at 55.56 nM amounted to 5510 RLU; the CXCR1 activation, average RLU at 87.167 nM IgG is 52100 RLU; the CXCR1 activation, average RLU at 166.67 nM stood at 6210 RLU. In addition, in the experiment with CXCR1 [1], the CXCR1 activation, average RLU at 261.500 nM IgG came to 56300 RLU and the CXCR1 activation, average RLU at 500.00 nM is 6640 RLU. Also, in the experiment with CXCR1 [2], the Median Arbitrary Fluorescence Units (AFU) worked out at 707 AFU.
For the substance “BLV1H12+CDR3-IL8 / BLV1H12 light chain (SEQ ID NO: 412) IgG (antibody)”, the FACS CXCR1/Parental Ratio with CXCR1 [3] is 5.
In the experiment with CXCR1 [1], “IgG VH4-4 CDR3 BsaI (lacking the IL-8 insert) (antibody)” gave a CXCR1 activation, average RLU at 0.001 nM IgG of 7500 RLU; a CXCR1 activation, average RLU at 0.004 nM IgG of 7390 RLU; a CXCR1 activation, average RLU at 0.013 nM IgG of 7050 RLU; a CXCR1 activation, average RLU at 0.040 nM IgG of 6970 RLU. In the experiment with CXCR1 [1], this substance yielded a CXCR1 activation, average RLU at 0.120 nM IgG of 7330 RLU; a CXCR1 activation, average RLU at 0.359 nM IgG of 6690 RLU; a CXCR1 activation, average RLU at 1.076 nM IgG of 7180 RLU; a CXCR1 activation, average RLU at 3.228 nM IgG of 7030 RLU. In the experiment with CXCR1 [1], this substance yielded a CXCR1 activation, average RLU at 9.685 nM IgG of 7170 RLU; a CXCR1 activation, average RLU at 29.056 nM IgG of 7100 RLU; a CXCR1 activation, average RLU at 87.167 nM IgG of 7140 RLU; a CXCR1 activation, average RLU at 261.500 nM IgG of 7540 RLU.
On to “IL-8 (from UniProt P10145 28-99) (ligand)”, for which, in the experiment with CXCR1 [1], the CXCR1 activation, average RLU at 0.01 nM worked out at 440 RLU; the CXCR1 activation, average RLU at 0.08 nM amounted to 504 RLU; the CXCR1 activation, average RLU at 0.23 nM was found to be 940 RLU; the CXCR1 activation, average RLU at 0.69 nM turned out to be 1940 RLU. In the experiment with CXCR1 [1], this substance displayed a CXCR1 activation, average RLU at 2.06 nM of 4110 RLU; a CXCR1 activation, average RLU at 6.17 nM of 5870 RLU; a CXCR1 activation, average RLU at 18.52 nM of 7300 RLU; a CXCR1 activation, average RLU at 31.5 nM of 55500 RLU. In the experiment with CXCR1 [1], the CXCR1 activation, average RLU at 55.56 nM worked out at 7360 RLU; the CXCR1 activation, average RLU at 166.67 nM was 6770 RLU; the CXCR1 activation, average RLU at 500.00 nM was found to be 5720 RLU; the CXCR1 activation, luminescence at 0.4 nM IL-8 domains was 4930. In the experiment with CXCR1 [1], the CXCR1 activation, luminescence at 1.6 nM IL-8 domains amounted to 8730; the CXCR1 activation, luminescence at 6.25 nM IL-8 domains was 22300; the CXCR1 activation, luminescence at 25 nM IL-8 domains is 42200; the CXCR1 activation, luminescence at 100 nM IL-8 domains was 54000. In the experiment with CXCR1 [4], this substance registered a CXCR1 activation, luminescence at 0.4 nM IL-8 domains of 6530; a CXCR1 activation, luminescence at 1.6 nM IL-8 domains of 12200; a CXCR1 activation, luminescence at 6.25 nM IL-8 domains of 28600; a CXCR1 activation, luminescence at 25 nM IL-8 domains of 50500. Besides, the CXCR1 activation, luminescence at 100 nM IL-8 domains in the experiment with CXCR1 [4] was found to be 70200.
Turning to Negative Control IgG (antibody), in the experiment with Kv1.3 (human), the IL-2 ELISA (A450), Donor 1, 0.01 nM IgG was 2 A450 and 2.15 A450; the IL-2 ELISA (A450), Donor 1, 0.75 nM IgG is 2.11 A450 and 2.04 A450; the IL-2 ELISA (A450), Donor 1, 68 nM IgG is 1.48 A450 and 1.55 A450; the IL-2 ELISA (A450), Donor 2, 0.01 nM IgG is 1.61 A450 and 1.48 A450. Further, in the experiment with Kv1.3 (human), the IL-2 ELISA (A450), Donor 2, 0.75 nM IgG is 1.56 A450 and 1.52 A450; the IL-2 ELISA (A450), Donor 2, 68 nM IgG is 1.5 A450 and 1.37 A450; the TNF-α ELISA (A450), Donor 1, 0.01 nM IgG was 1.62 A450 and 1.66 A450; the TNF-α ELISA (A450), Donor 1, 0.75 nM IgG was 1.69 A450 and 1.65 A450. Further, in the experiment with Kv1.3 (human), the TNF-α ELISA (A450), Donor 1, 68 nM IgG was 1.02 A450 and 1.13 A450; the TNF-α ELISA (A450), Donor 2, 0.01 nM IgG is 2.07 A450 and 1.77 A450; the TNF-α ELISA (A450), Donor 2, 0.75 nM IgG was 2.04 A450 and 1.85 A450; the TNF-α ELISA (A450), Donor 2, 68 nM IgG is 1.88 A450 and 1.54 A450.
On to “soluble IL-8 (from UniProt P10145 28-99) (ligand)”, for which, in the experiment with CXCR1 [1], the CXCR1 activation, luminescence, 0.1 nM IL-8 domains came to 4200 luminescence; the CXCR1 activation, luminescence, 0.5 nM IL-8 domains turned out to be 9790 luminescence; the CXCR1 activation, luminescence, 2.2 nM IL-8 domains worked out at 25700 luminescence; the CXCR1 activation, luminescence, 9.9 nM IL-8 domains was found to be 50300 luminescence. Moreover, in the experiment with CXCR1 [1], the CXCR1 activation, luminescence, 44 nM IL-8 domains was found to be 54100 luminescence and the CXCR1 activation, luminescence, 200 nM IL-8 domains was 50400 luminescence.
